The source of these data is US20200362021A1 (PHANES THERAPEUTICS, published 2020).

Assay [1] concerns the target T1, Biotin-APL17.
T1 peptide: Biotin-KFRRQRPRLSHKGPMPF
Kind of assay: ELISA, peptide on neutravidin plate, mAb 200 ng/ml, A405. As to the method:
(§1) FIGS. 1A-1C show binding of anti-apelin mAbs to various biotinylated apelin peptides measured by ELISA. Biotinylated apelin peptides were immobilized on ELISA plates coated with neutravidin and purified recombinant rabbit anti-apelin mAbs were added for binding to the peptides on the plates. The binding was detected by adding a goat anti-rabbit IgG Fc-conjugated to alkaline phosphatase and PNPP substrate, and measured as the absorbance at 405 nm.
(§2) For the binding assay, neutravidin in carbonate coating buffer was coated on high binding ELISA plates at 1 μg/ml overnight. Peptides were added at 4 μg/ml after the plates were blocked with 1% BSA in TBS. After incubation of the plates at room temperature for 60 minutes, the plates were washed and then purified recombinant rabbit antibodies were added at 200 ng/ml. Following rabbit antibody binding to the peptides on the plates at room temperature for 90 minutes, goat anti-rabbit IgG Fc-conjugated to alkaline phosphatase was added, and antibody-antigen binding was detected by adding PNPP substrate and reading absorbance of ELISA plates at 405 nm. Each mAb was assayed in duplicate.
(An ELISA detects its analyte on a solid surface through an enzyme-linked reagent.)

Assay [2] addresses T2, APL17-Biotin.
T2 peptide: KFRRQRPRLSHKGPMPF-biotin
Described as above. As to the method:
as §1, §2

Assay [3] deals with T3, apelin-13-biotin (…-biotin) (C-terminal biotin).
T3 construct: also called APL13-Biotin
The experiment in a line: SPR (Biacore), apelin-13-biotin on streptavidin chip. As to the method:
(§3) Anti-apelin mAbs at four different concentrations (12.5 nM, 25 nM, 50 nM and 100 nM) were captured on the chip surface. The on- and off-rate for antibody-antigen binding were measured, curve fitted and calculated.
Background: SPR reads the build-up and loss of mass on a sensor chip optically.

Assay [4] has as its target T4, pyr-apelin-13-biotin (pE-RPRLSHKGPMPF-biotin) (N-terminal pyroglutamate (pE); C-terminal biotin).
T4 construct: also called pyrAPL13-Biotin
T4 peptide: ERPRLSHKGPMPF
Kind of assay: SPR (Biacore), pyr-apelin-13-biotin on streptavidin chip. As to the method:
as §3

Assay [5] addresses T5, biotin-apelin-13 (biotin-…) (N-terminal biotin).
T5 construct: also called Biotin-APL13
The experiment in a line: SPR (Biacore), biotin-apelin-13 on streptavidin CM5 chip, mAb at 12.5-100 nM. As to the method:
as §3

Assay [6] concerns the target T5, biotin-apelin-13 (biotin-…). The experiment in a line: SPR (Biacore) with biotin-apelin-13, humanized IgG1 mAb in HEK293 supernatant. The text has this:
The rabbit anti-apelin mAb C8 was humanized to reduce the potential of immunogenicity when used in human patients. The sequences of the variable regions of the heavy and light chains (VH and VL) were compared with the human antibody sequences in the Protein Data Bank (PDB) database and a homology model was built by applying SWISS-modeling. The CDRs in both the heavy and light chains of the rabbit mAb were grafted into human frameworks that have the highest possibility of maintaining the proper structure likely required for antigen binding. Backmutations from human residue to rabbit residue were designed when necessary. The sequences of the humanized VH and VL regions are shown in Table 11 and Table 12, respectively. The humanized VH and VL regions were fused to human IgG1 heavy chain and kappa light chain constant regions, respectively, to generate humanized mAbs. Constructs corresponding to the mAb sequences were used for transient transfection in HEK 293 cells and the supernatants were analyzed for the affinity of each humanized mAb for apelin.

No end group written: not given here. *: point of attachment. Biotin = O=C1N[C@H]2[C@H](CS[C@H]2CCCCC(=O)*)N1

One may read the Kd as the concentration at which binding is half-saturated. A low value points to a tighter complex.

B1: anti-apelin mAb C10 (antibody, V domains shown)
VH: QSLEESGGRLVTPGGSLTLTCTVSGIDLNSYAIDWVRQAPGKGLEWIGVIAPSGTTYYPTWAKGRFTISKTSTTVDLKVTGLTTEDTATYFCAAYPIDPGSNIWGPGTLVTVSS
VL: DPVLTQTPSSVSAAVGGTATIGCQSSESVDYGNQLSWYQQKPGQPPKRLAYYVSILDAGVPSRFKGSGSGTQFTLTISDLECDDAATYYCQGGYISNLYPFGGGTEVVVQ
notes: recombinant rabbit IgG made in HEK293 cells
Turning to B1, the binding result in assay [1] and in assay [2] was “no binding (tested: 200 ng/ml)” in each case. Also, the Kd worked out at 6.46 pM in assay [3] and 0.0482 pM in assay [4].

B2: anti-apelin mAb C12 (antibody, V domains shown)
VH: QSLEESGGRLVTPGGSLTLTCTVSGIDLSSYAIDWVRQAPGKGLEWIGVIAPSSTTYYPTWAKGRFTISKTSSTTVDLKVIGLTTEDTATYFCAAYPIDPGSNVWGPGTLVTVSS
VL: DPVLTQTPSSVSAAVGGTVTIGCQSSESVDYGNQLSWYQQKPGQPPKRLTYYVSILDAGVPSRFKGSGSGTQFTLTISDLECDDAATYYCQGGYISNLYPFGGGTEVVVQ
notes: as for B1
Consider B2, for which the binding result in assay [1] and in assay [2] was “no binding (tested: 200 ng/ml)” in each case. Besides, the figures for the Kd in assay [3] and in assay [4] were 3.55 pM and 0.0555 pM, respectively.

B3: anti-apelin mAb C4 (antibody, V domains shown)
VH: LEQSGGGAEGGLVKPGGSLELCCKASGFTLSSSYWICWVRQAPGKGLEWIGCIHYGSSGTAYYASWVNGRFTLSRDIDQSTGCLQLNSLTAADTAMYYCARFLSDMYYYNLWGPGTLVTVSS
VL: QVLTQTPASVSAAVGGTVTINCQASQSIYNNNQLSWYQQKPGQPPKLLIYYASTLASGVSSRFKGSGSGTQFTLTISGVQCDDAATYYCQGQFNCRSADCHAFGGGTEVVVK
notes: as for B1
Turning to B3, the binding result in assay [1] and in assay [2] was “binds” each time. This molecule also gave a Kd in assay [5] of 4010 pM.

B4: anti-apelin mAb C9 (antibody, V domains shown)
VH: QEQLEESGGDLVKPEGSLTLTCTASGFSFSSSYWICWVRQAPGKGLEWIACIYQSGDGRTWYASWAEGRFTISKTSPTTVTLQMASLTAADTATYFCARCPHNTYSHFDLWGPSTLVTVSS
VL: DIVMTQTPASVEAAVGGTVTIKCQASQSINSWLSWYQQKPGQPPKPLIYGASNLASGVPSRFKGSGSGTQFTLTISDLECADAATYSCLGYYYSSYNSVGFWAFGGGTEVVVK
notes: as for B1
B4: the binding result in assay [1] and in assay [2] was “binds” each time. Besides, the Kd in assay [5] stood at 14800 pM.

B5: humanized anti-apelin mAb A11 (antibody, V domains shown)
VH: QSLEESGGGLVQPGGSLRLSCAVSGIDLYSNRMSWVRQAPGKGLEWVSSIGSSPWYASWAQGRFTISRDNSNTLYLQMNSLTAEDTAVYYCAKGGYRPGASVWGQGTLVTVSS
VL: DIQLTQSPSSLSASVGDRVTITCQSSQSIYDNNDLAWYQQKPGKTPKRLIYLASSLDSGVPSRFSGSGSGTDFTLTISSLQPEDVATYYCAGGYSGDIYTFGGGTKVEIK
notes: humanized from C8; tested as HEK293 supernatant
In assay [6], B5 yielded a Kd of 0.126 pM.

B6: humanized anti-apelin mAb A33 (antibody, V domains shown)
VH: QSLEESGGGLVQPGGSLRLSCAVSGIDLYSNRMSWVRQAPGKGLEWVGSIGSSPWYASWAQGRFTISRDNSNTVYLQMNSLTAEDTATYFCAKGGYRPGASVWGQGTLVTVSS
VL: AQVLTQSPSSLSASVGDRVTIACQSSQSVYDNNDLAWYQQKAGQTPKRLIYLASSLDSGVPSRFSGSGSGTEFTLTISSLQCEDVATYYCAGGYSGDIYTFGGGTEVVVE
notes: as for B5
Take B6: in assay [6], binding was put at a Kd of 0.0143 pM.

B7: humanized anti-apelin mAb A41 (antibody, V domains shown)
VH: QSLEESGGGLVQPGGSLRLSCTVSGIDLYSNRMSWVRQAPGKGLEWVGSIGSSPWYASWAQGRFTISRDNSNTVYLKMNSPTAEDTATYFCAKGGYRPGASVWGQGTLVTVSS
VL: DIQLTQSPSSLSASVGDRVTITCQSSQSIYDNNDLAWYQQKPGKTPKRLIYLASSLDSGVPSRFSGSGSGTDFTLTISSLQPEDVATYYCAGGYSGDIYTFGGGTKVEIK
notes: as for B5
In the case of B7, the Kd in assay [6] worked out at 0.067 pM.

B8: humanized anti-apelin mAb A21 (antibody, V domains shown)
VH: QSLEESGGGLVQPGGSLRLSCAVSGIDLYSNRMSWVRQAPGKGLEWVSSIGSSPWYASWAQGRFTISRDNSNTVYLQMNSLTAEDTATYFCAKGGYRPGASVWGQGTLVTVSS
VL: DIQLTQSPSSLSASVGDRVTITCQSSQSIYDNNDLAWYQQKPGKTPKRLIYLASSLDSGVPSRFSGSGSGTDFTLTISSLQPEDVATYYCAGGYSGDIYTFGGGTKVEIK
notes: as for B5
On to B8, for which the Kd in assay [6] amounted to 0.00165 pM.

B9: humanized anti-apelin mAb A43 (antibody, V domains shown)
VH: QSLEESGGGLVQPGGSLRLSCTVSGIDLYSNRMSWVRQAPGKGLEWVGSIGSSPWYASWAQGRFTISRDNSNTVYLKMNSPTAEDTATYFCAKGGYRPGASVWGQGTLVTVSS
VL: AQVLTQSPSSLSASVGDRVTIACQSSQSVYDNNDLAWYQQKAGQTPKRLIYLASSLDSGVPSRFSGSGSGTEFTLTISSLQCEDVATYYCAGGYSGDIYTFGGGTEVVVE
notes: as for B5
In assay [6], B9 displayed a Kd of 3.26 pM.

B10: anti-apelin mAb C11 (antibody, V domains shown)
VH: QSLEESGGRLVSPGGSLTLTCTVSGIDLSSHAMDWVRQAPGKGLEWIGVIAPNDATYYPTWARGRFTISKTSTTVGLKMTRLTTEDTATYFCAAYPIDAGANVWGPGTLVTVSS
VL: DPMLTQTASPVSAHVGGTVTINCQSSESVDYNNQLSWYQQKPGQPPKRLMYYVSTLDSGVPSRFKGSGSGTQFSLTISDLECDDAGTYYCQGGYISNLYPFGGGTEVVVK
notes: as for B1
With B10, the binding result in assay [1] and in assay [2] was “binds” throughout. For the same molecule, the results for the Kd in assay [3] and in assay [4] were 39.3 pM and 0.141 pM, respectively.

B11: anti-apelin mAb C16 (antibody, V domains shown)
VH: QSLEESGGRLVTPGGSLTLTCTVSGIDLNSYAMDWVRQAPGKGLEWIGVIAPNHYTYYPTWARGRFTISKTSTTVDLKMTRLTTEDTATYFCATYPIESGSNIWGPGTLVIVSS
VL: DPVLTQTPSSVSAAVGGTVTIGCQSSESVGMNNQLSWYQQKPGQPPKRLMYYVSTLDSGVPSRFKGSGSGTQFSLTISDLECDDAGTYYCQGGYISNLYPFGGGTEVVVK
notes: as for B1
For the molecule B11, the binding result in assay [1] and in assay [2] was “no binding (tested: 200 ng/ml)” in each case. Also, the Kd in assay [3] is 14300 pM; in assay [4], 6140 pM.

B12: anti-apelin mAb C22 (antibody, V domains shown)
VH: QSLEESGGRLVTPGGSLTLTCTVSGIDLNNYAMDWVRQAPGKGLEWIGVIAPNHYTYYPTWARGRFTISKTSTTVDLKMTSLTTEDTATYFCATYPIETGSNIWGPGTLVIVSS
VL: DPVLTQTPSSVSAAVGGTVTISCQSSESVDMNNQLSWYHQKSGQPPKRLMYYVSTLDSGVPSRFKGSGSGTQFTLTISGVQCDDAGTYYCQGGYISNLYPFGGGTEVVVK
notes: as for B1
On to B12, for which the binding result in assay [1] and in assay [2] was “binds” throughout. For the same molecule, the Kd is 107 pM in assay [3] and 0.155 pM in assay [4].

B13: anti-apelin mAb C14 (antibody, V domains shown)
VH: QSPEESGGRLVTPGGSLTLTCKISGVDLSNYAMDWVRQAPGKGLEWIGVIAPNDATYYPTWARGRLTISKTSTTVDLKMTRLTTEDTATYFCAAYPIDVGANVWGPGTLVTVSS
VL: DPMLTQTASPVSAAVGGTVTINCQSSESVDYNNQLSWYQQKPGQPPKRLMYYVSTLDSGVPSRFKGSGSGTQFSLTISDLECDDAGTYYCQGGYISNLYPFGGGTEVVVK
notes: as for B1
Take B13: the binding result in assay [1] and in assay [2] was “binds” in each case. Moreover, the figures for the Kd in assay [3] and in assay [4] were 141 pM and 6.49 pM, respectively.

B14: anti-apelin mAb C20 (antibody, V domains shown)
VH: QSLEESGGRLVTPGGSLTLTCTVSGIDLNNYAIDWVRQAPGKGLEWIGVIAPNHYTCYPTWARGRFTISKTSTTVDLKMTSLTTEDTATYFCAAYPIETGSNIWGPGTLVIVSS
VL: DPMLTQTPSSVSAAVGGTVTISCQSSESVDMNNQLSWYQQKPGQPPKRLMYYVSTLDSGVPSRFKGSGSGIHFSLTISDLECADAGTYYCQGGYISNLYPFGGGTEVVVK
notes: as for B1
Take B14: the Kd came out at 202 pM in assay [3] and 41.9 pM in assay [4].
